experiment: yeast display, Sf9 membrane polyspecificity reagent, FACS + sequencing; frameworks hold sequencing errors
Summary of the method: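 A nanobody's polyreactivity label depends on the gate it was sorted from. Yeast display cells were stained with 10% biotinylated, detergent-solubilized Sf9 membrane reagent for 1 hour at 4 °C, enriched on streptavidin microbeads and sorted by FACS. The low and high (top ~1%) gates were set on anti-HA fluorescence for expression and streptavidin fluorescence for reagent binding.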

| Sequence | polyreactivity (PSR sort gate) |
| --- | --- |
| QVQLVESGGGLVQAGGSLRLSCAASGLIFNKNSMGWYRQAPGKERELVASNTTTGARTYYADSVKGRFTISRDNAKNTVYLQMNSLKPEDTAFYYCASVHWGWRSITGGVGYDSWGQGTQVTVSS | high polyreactivity |
| QVQLVESGGGLVQAGGSLRLSCAASGLIFNNNAMGWYRQAPGKERELVAAISYRGGSTYYADSVKGRFTISRDNAKNTVYLQMNSLKPEDTAVYYCAARKISKYDYWGQGTQVTVSS | high polyreactivity |
| QVQLVESGGGLVQAGGSLRLSCAASGLIFNRYTMGWYRQAPGKERELVAAINRSGGNTYYADSVKGRFTISRDNAKNTVYLQMNSLKPEDTAVYYCNADYFSRTGYKYDYWGQGTQVTVSS | high polyreactivity |
| QVQLVESGGGLVQAGGSLRLSCAASGLIFNVNVMGWYRQAPGKERELVAAIDYSGGSTYYADSVKGRFTISRDNAKNTVFLQMNSLKPEDTAVYYCSADDAAWPYSWWGFDYWGQGTQVTVSS | low polyreactivity |
| QVQLVESGGGLVQAGGSLRLSCAASGLIFPLYAMGWYRHAPGKERELVAAITSSGGSTYYADSVKGRFTISRDNAKNTVYLQMNSLKPEDTAVYYCAADYSVYWLDYGYWGQGTQVTVSS | low polyreactivity |
| QVQLVESGGGLVQAGGSLRLSCAASGLIFPRNAMGWYRQAPGKERELVAAITSGGGTNYADSVKWRFTISRDNAKNTVYLQMNSLIPEDTAVYYCAADYSVASPDGPYVIYDYWGQGTQVTVSS | low polyreactivity |
| QVQLVESGGGLVQAGGSLRLSCAASGLIFPWNAMGWYRQAPGKERELVAAINGRDGSTYYADSVKGLFTISRDNAKNTVYLQMNSLKPEDTAVYYCAKGPSGVRTYREYDSWGQGPQVTVSS | low polyreactivity |
| QVQLVESGGGLVQAGGSLRLSCAASGLIFPYYAMGWYRQAPGKERELVAAISRSGDSTYYADSVKGRFTISRDNAKITVYLQMNSLKPEDTAFYYCAAVLSYSYVRYNYWGQGTQVNVSS | high polyreactivity |
| QVQLVESGGGLVQAGGSLRLSCAASGLIFQVYDMGWYRQAPGKERELVAAISSGSNTNYADSVKGRFTISRDNAKNTVYLQMNSLKPEDTAVYYCAASWGYGALTPDMGYWGQGTQVTVSS | low polyreactivity |
| QVQLVESGGGLVQAGGSLRLSCAASGLIFQWYAMGWYRQAPGKERELVAAITGSGGSTYYADSVKGRFTISRDNAKNTVYLQMNSLKPEDTAVYYCNAGASRRYGYWGQGTQVTVSS | high polyreactivity |
| QVQLVESGGGLVQAGGSLRLSCAASGLIFRAYAMGWYRQAPGKERELVAAITRSGGRTYYADSVKGRFTISRDNAKNTVYLQMNSLTPEDTAVYYCAAEYGNTYSSYTYDYWGQGTQVTVSS | high polyreactivity |
| QVQLVESGGGLVQAGGSLRLSCAASGLIFRAYAMGWYRQAPGKETELVAAITWNGGSTNYADSVKGRFTISRDNAKNTVYLQMHSLKPEDTAVYYCAAGSSRVFRKAGITRPSGLYYYWGQGTQVTVSS | high polyreactivity |
| QVQLVESGGGLVQAGGSLRLSCAASGLIFRAYGMGWYIQAPGKERELLAAITWNGGSTNYADSVKGRFTISRDNAKNTVYLQMNSLKPEDTAVYYCAARLAGRGSSSSRVVRTGGYWGQGTQVTVSS | high polyreactivity |
| QVQLVESGGGLVQAGGSLRLSCAASGLIFRDNTMGWYRQAPGKERELVAAINSGGGTSYADSVKGRFTISRDNAKNTVYLQMNSLKPEDTAVYYCAAAWWPYRYGTYYSQYDYWGQGTQVTVSS | low polyreactivity |
| QVQLVESGGGLVQAGGSLRLSCAASGLIFRLYAMGWYRQAPGKERELVAAISGGGGSTYYADSVKGRFTISRDNAKNTVYLQMNSLKPEDTAVYYCAATYSRGYWWSEYDYWGQGTQVTVSS | low polyreactivity |
| QVQLVESGGGLVQAGGSLRLSCAASGLIFRLYAMGWYRQAPGKERELVAAISVSGAITYYADSVKGRFTISRDNAKNTVYLLMNSLKPEDTAVYYCNAQAVFRRDGYVYWDVDYWGQGTQVTVSS | low polyreactivity |
| QVQLVESGGGLVQAGGSLRLSCAASGLIFRPYAMGWYRQAPGKERELVAGINSGGNTDYADTVKGRFTISRDNAKNTVYLQMNSLKPEDTAVYYCNREYQVTIYDYWGQGSQVTVSS | low polyreactivity |
| QVQLVESGGGLVQAGGSLRLSCAASGLIFRRNAMGWYRQAPGKERELVAAISRSSGSTYYADSVKGRFTISRDNAKNTVYLQMNSLKPEDTAVYYCAVHVWGTYGSWEYYYWGQGTQVTVSS | high polyreactivity |
| QVQLVESGGGLVQAGGSLRLSCAASGLIFRSYAMGWYRQAPGKERELVARISIRGGSTYYADSVKGRFTISRDNAKYTVYLQMNSLKPEDTAVYYCGAVGYFGGFRYDYWGQGTQVTVSS | high polyreactivity |
| QVQLVESGGGLVQAGGSLRLSCAASGLIFRTYTMGWYRQAPGKERELVAAISASGGRTYYADSVKGRFTISRDTAKNTVYLQMNRLKPEDTAVNYFNARVNYKGYDSWGQGTQVTVSS | high polyreactivity |

| Sequence | polyreactivity (PSR sort gate) |
| --- | --- |
| QVQLVESGGGLVQAGGSLRLSCAASGLIFRTYTMGWYRQAPGKERELVATITRRGGTTYYADSVKGRFTISRDNAKNTVYLQMKSLKPEDTAVYYCAKSPYYTWKYDYWGQGTQVTVSS | high polyreactivity |
| QVQLVESGGGLVQAGGSLRLSCAASGLIFRYYAMGWYRQAPGKERELVAAISSSGTRTYYADSVKGRFTISRDNAKNTVYLQMNSLKPEDTSVYYCATENQNPTGGYWGQGTQVTVSS | high polyreactivity |
| QVQLVESGGGLVQAGGSLRLSCAASGLIFSGSAMGWYRQAPGKERELVAAITWSGGSTYYADSVKGRFTISRDNAKNSVYLQMNSQKPEDTAVYYCNAKFYQISRYGYWGQGTQVTVSS | high polyreactivity |
| QVQLVESGGGLVQAGGSLRLSCAASGLIFSLNAMGWYRHATGKERELVAAISSDDSTYYADSVKGRFTISRDNAKNNVYLQMNSLTPEDTAVYYCAAVQLVPGYVDSNDYYWGQGTQVTVSS | low polyreactivity |
| QVQLVESGGGLVQAGGSLRLSCAASGLIFSRYAMGWYRQAPGKEREFVAAINWNGGRTYYADSVKGRFTISRDNAKNTVYLQMNSLKPEDTAVYYCAATWIDYYVIYAYDYWGQGTQVTVSS | high polyreactivity |
| QVQLVESGGGLVQAGGSLRLSCAASGLIFSRYAMGWYRQGPGKERELVAASSGGGGSTYYADSVKGRFTISRDNAKNTVYLQMNSLKPEDTAVYYSARKYTRKIPASDYWGQGTQVTVSS | high polyreactivity |
| QVQLVESGGGLVQAGGSLRLSCAASGLIFSVYAMGWYRQAPGKERELVAAISWSGSTYYADSVKGRFTISRDNAKNTVYLQMNSLKPEDTAVYYCAAEYDYDHFYWMDYWGQGTQVTVSS | high polyreactivity |
| QVQLVESGGGLVQAGGSLRLSCAASGLIFSWYAMGWYRQAPGKEREFVAGISKGGDSTYYADSVKGRFTISRDNAKNTVYLQMNSLKPEDTAVYYCAADWWQGTSHYWGGAYNYWGQGTQVTVSS | low polyreactivity |
| QVQLVESGGGLVQAGGSLRLSCAASGLIFSYNAMGWYRPATGNERELVATIRRVGSTNYADSVKGRFTISRDNAKITVYLQMNSLKPEDTAVYYCAARSLRYGRGMYYWGQGTQVTVSS | high polyreactivity |
| QVQLVESGGGLVQAGGSLRLSCAASGLIFSYYVMGWYRQAHGKERELVAAISRRGGSTYYADSVKGRFTISRDNAKNTVYLQMNSLKPEDTAVYYCNAQRNFKSITEYDYWGQGTQVTVSS | high polyreactivity |
| QVQLVESGGGLVQAGGSLRLSCAASGLIFSYYVMGWYRQAPGKERELVAAISRIGGSTYYADSVKGRFTISRDNAKNTVYLQMNSLKPEDTAVYYCAAYDLSPGSLTGGYYWGQGTQVTVSS | high polyreactivity |
| QVQLVESGGGLVQAGGSLRLSCAASGLIFTPYAMGWYRQAPGKESELVAAISSSGGTTYYADSVKGRFTISRDNAKNTVYLQMKSLKPEDTAVYYCAADTGYPGYYPEYYWGQGTQVTVSS | high polyreactivity |
| QVQLVESGGGLVQAGGSLRLSCAASGLIFTRNAMGWYRQAPGKERELVASISNSGGSTYYADSVKGRFTISRDNAKNTVYLQMNSLKPEDTAVYYCAAPTHLHGHGNQNEFYYWGQGTQVTVSS | low polyreactivity |
| QVQLVESGGGLVQAGGSLRLSCAASGLIFTRNAMGWYRQAPGKERELVATITWSGGRTYYADSVKGRFTISRDNAKNTVYLQMNSLKPEDTAVYYCAAASGPLTYTFFRNDYWGQGTQVTVSS | low polyreactivity |
| QVQLVESGGGLVQAGGSLRLSCAASGLIFTSYPMGWDRQAPGKERELVAAIDTSGGSTYYADSVKGRFTISRDNAKNTVYLQMNSLKPEDTAVYYCAATSTYRSYLEYDYWGQGTQVTVSS | low polyreactivity |
| QVQLVESGGGLVQAGGSLRLSCAASGLIFTTNAMGWSRPAPGTEREFVAAISPSGGSTYYADSVKGRFTISRDNAKNTVYLQMNSLKPEDTAVYYCAARYSPVWHKYYYWGQGTQVTVSS | high polyreactivity |
| QVQLVESGGGLVQAGGSLRLSCAASGLIFTTNAMGWYRQAPGKEREFVAAISPSGGSTYYADSVKGRFTISRDNAKNTVYLQMNSLKPEDTAVYYCAAAGWSARGYNYWGQGTQVTVSS | high polyreactivity |
| QVQLVESGGGLVQAGGSLRLSCAASGLIFTTYDMGWYRQAPGKERELVAAISASSDTTYYADSVKGRFTISRDNAKNTVYLQMNSLKPEDTAVYYCAADRFDFPTATGSNYWGQGTQVTVSS | low polyreactivity |
| QVQLVESGGGLVQAGGSLRLSCAASGLIFTYYAMGWYRQAPGKERELVAGISSGTNTNYADSVKGRFTISRDNAKNTVYLQMISLKPEDTAVYYCAKTRGYQFVAYGYWGQGTQVTVSS | low polyreactivity |
| QVQLVESGGGLVQAGGSLRLSCAASGLIFVHYDMGWYRQAPGKERELVAAISAGGGSTYYADSVKGRFTISRYNSKNTVYLQMNSLLPEDTAVYYCIARVVNYFRPRTGAREYDFWGQGTQGTVSS | high polyreactivity |
